This note sets out measurements from article PMC11708414.

For this test, the target named is heavy mero-myosin (HMM) (rabbit).

The substance “R312C cardiac actin variant (R312C-ACTC) (natural protein)” had an unregulated myosin ATPase: KM for ACTC protein, 2 mM ATP of 16.6 µM.

“R312H cardiac actin variant (R312H-ACTC) (natural protein)” yielded an unregulated myosin ATPase: KM for ACTC protein, 2 mM ATP of 24.8 µM.

As to “wildtype cardiac actin (WT-ACTC) (from UniProt P68032 1-377) (natural protein)”, the unregulated myosin ATPase: KM for ACTC protein, 2 mM ATP is 5.63 µM.
